The target in experiment [1] is M2 protein of influenza A/Hong Kong/483/97 (H5N1) (Influenza A virus A/Hong Kong/483/97).
The target in experiment [2] is recombinant homotrimeric HA, A/California/4/09 H1N1 (Influenza A virus A/California/4/09 (H1N1)). As to the kind of experiment: trimeric HA microarray, transfection set 5. To be noted: remark: other sources report otherwise.
In experiment [3] the target is recombinant homotrimeric HA, A/Japan/305/57 H2N2 (Influenza A virus A/Japan/305/57 (H2N2)). The experiment is described as follows: trimeric HA microarray, transfection set 5. The note with it: remark: other sources report otherwise.
In experiment [4] the target is recombinant homotrimeric HA, A/Solomon Islands/3/06 H1N1 (Influenza A virus A/Solomon Islands/3/06 (H1N1)). The experiment is described as follows: trimeric HA microarray, transfection set 5. To be noted: remark: other sources report otherwise.
For experiment [5], the target named is recombinant homotrimeric HA, A/South Carolina/1/18 H1N1 (Influenza A virus A/South Carolina/1/18 (H1N1)). The experiment is described as follows: trimeric HA microarray, transfection set 5. The note with it: remark: other sources report otherwise.
Experiment [6] has as its target recombinant homotrimeric HA, A/Wisconsin/67/05 H3N2 (Influenza A virus A/Wisconsin/67/05 (H3N2)). The experiment is described as follows: trimeric HA microarray, transfection set 5. To be noted: remark: other sources report otherwise.

B1: 3259_J21 (antibody, V domains shown)
VH: QVQLQESGPRVVRPSETLSLTCTVSGGSISSYNWIWIRQPPGKGLEWIGHIYDYGRTFYNSSLQSRPTISVDASKNQLSLRLTSVTASDTAVYYCARPLGILHYYAMDLWGQGTTVTVSS
VL: DIQMTQSPLSVSVSVGDRVTIACRASQSIDKFLNWYQQKPGKAPKLLIYGASNLHSGAPSRFSASGSGTDFTLTITNIQTEDFATYLCQQSFSVPAFGGGTKVEIK
B1: in experiment [1], the FACS M2-HK MFI was 1670 MFI.

B2: TCN-544 (5082_A19) (antibody, V domains shown)
VH: QVQLQESGPGLVKPSETLSLTCTVSRGSIGHYFWSWIRQPPGKGLEWIGYISYSGSTKYNPSLRSRVTISVDTSKNQFSLNLNSVTATDTALYYCAREDYDILTGAGPGMEVWGQGTTVTVSS
VL: QSMLTQPPSASGTPGQRVTISCSGSSSNIGSNTVNWFKHLPGTAPKLLIYRNDLRPSGVPDRFSGSKSGTSASLAISGLQSEDEADYYCATWDDSLNGFYVFGTGTKVTVL
On to B2, for which the Trimeric HA Binding RLU is 706 RLU in experiment [2], 1000 RLU in experiment [3], 997 RLU in experiment [4] and 1330 RLU in experiment [5].

B3: 3248_P18 (antibody, V domains shown)
VH: QVQLQESGPGLVKPSETLSLTCTVSGGSISAYHWSWIRQPPGKGLEWIGHIFDSGSTYYNPSLKSRVTISLDASKNQLSLRLTSVTASDTAIYYCARPLGSRYYYGMDVWGQGTTVTVSS
VL: DIQMTQSPSSLSASVGDRVTITCRASQSISRYLNWYQQKPGKAPKLLIYGASTLQNGAPSRFSGSGSGTDFTLTISSLQPEDSATYLCQQSYSVPAFGGGTKVEVK
In the case of B3, the FACS M2-HK MFI in experiment [1] was determined as 967 MFI.

B4: 3136_G05 (antibody, V domains shown)
VH: QVQLQESGPGLVKPSETLSLTCSVSGGSISSDFWSWIRQPPGKGLEWIGYVYNRGSTKYSPSLKSRVTISADMSKNQFSLNMSSVTAADTAVYYCAKNGRSSTSWGIDVWGKGTTVTVSS
VL: DIQMTQSPSSLSASVGDRLTITCRASQSISTYLHWYQQKPGKAPKLLIYAASSLQSGVPSRFSGSRSGTDFTLTISSLQPDDFATYYCQQSYSPPLTFGPGTKVDMK
For the molecule B4, in experiment [1], the FACS M2-HK MFI amounted to 109 MFI.

B5: 3260_D19 (antibody, V domains shown)
VH: DMQLVESGGGLVPPGGSLRLSCAASGFSVSDNYINWVRQAPGKGLDWVSVFYSADRTSYADSVKGRFTVSSHDSKNTVYLQMNSLRAEDTAVYYCARVQKSYYGMDVWGQGTTVTVSS
VL: GIQMTQSPSSLSASVGDRVTITCRASQSISRYLNWYLQKPGKAPKLLISGASSLQSGVPSRFSGTGSGTEFTLTISSLQPEDFATYYCQQTFSIPLFGQGTKVEIK
For the molecule B5, the FACS M2-HK MFI in experiment [1] is 846 MFI.

B6: 3243_J07 (antibody, V domains shown)
VH: QVQLQESGPGLLKPSDTLALTCTVSGGSITSDYWSWIRQPPGRGLDWIGFFYNGGSTKYNPSLKSRVTISADTSKNQLSLKLTSVTAADTGVYYCARHDVKFSGSYYVASWGQGTRVTVSS
VL: DIQMTQSPSSLSASVGDRVTISCRASQSISTYLNWYQQQPGKAPKVLISGATNLQSGVPSRFSGSGSGTDFTLTISSLQPEDFATYYCQQSYNTPLIFGQGTKLEIK
Take B6: in experiment [1], the FACS M2-HK MFI turned out to be 131 MFI.

B7: 3253_P10 (antibody, V domains shown)
VH: QVQLQESGPGLLKPSDTLALTCTVSGGSITSDYWSWIRQPPGRGLDWIGFFYNGGSTKYNPSLKSRVTISADTSKNQLSLKLTSVTAADTGVYYCARHDAKFSGSYYVASWGQGTRVTVSS
VL: DIQMTQSPSSLSASVGDRVTISCRASQSISTYLNWYQQQPGKAPKVLISGATDLQSGVPSRFSGSGSGTDFTLTISSLQPEDFATYYCQQSYNTPLIFGQGTKLEIK
With B7, the FACS M2-HK MFI in experiment [1] worked out at 43 MFI.

B8: TCN-543 (5081_G23) (antibody, V domains shown)
VH: QVHLVQSGAEVRKPGDSVKVSCKTSGYTFSTYPVAWVRQVPGQGLEWMGWISTYNGNTNFAQNFQGRVTLTTDTTTNTAYMEVRSLKFDDTAVYYCARVEGSYRDFWNNQNRFDPWGQGTLVTVSS
VL: SYVLTQPPSVSVAPGQTARISCGGSNIGGKSVHWYQQKPGQAPVLVVYDDSGRPSGIPERFSGSNSGDTATLTISRVEAGDEADYFCQVWDNFGGVFGTGTKVTVL
For B8, the Trimeric HA Binding RLU is 2340 RLU in experiment [2], 43500 RLU in experiment [4], 28300 RLU in experiment [5] and 37000 RLU in experiment [6].

B9: TCN-549 (5092_P04) (antibody, V domains shown)
VH: QVQLVQSGAEVKKPGASVKVSCKASGYTFTGYYMHWVRQAPGQGLEWMGWINPNSGDTNYAQKFQGRVTMTRDTSITTAYMELSSLRSDDTAVYYCARDSPYSSSWSFFDYWGQGPLVTVSS
VL: not shown
For B9, the Trimeric HA Binding RLU amounted to 622 RLU in experiment [2], 1080 RLU in experiment [3], 640 RLU in experiment [4] and 51600 RLU in experiment [6].

B10: 3245_O19 (antibody, V domains shown)
VH: EVQLVESGGGLVQPGGSLRLSCTASGLSVSSTYMNWVRQAPGKGLEWVSVFYSETRTYYADSVKGRFTVSRHNSNNTLYLQMNSLRVEDTAVYYCARVQRLSYGMDVWGQGTTVTVSS
VL: DIQMTQSPSSLSASVGDRVTITCRASQSISTYLNWYQKRPGKAPKLLVYGASTLQSGVPSRFSGSGSGTDFTLTIASLQPEDSATYYCQQTYSIPLFGQGTRLEIK
For the molecule B10, the FACS M2-HK MFI in experiment [1] is 919 MFI.

B11: 3244_H04 (antibody, V domains shown)
VH: EVQLVESGGGLVQPGGSLRLSCTASGLSVSSTYMNWVRQAPGKGLEWVSVFYSETRTYYADSVKGRFTVSRHNSNNTLYLQMNSLRAEDTAVYYCARVQRLSYGMDVWGQGTTVTVSS
VL: DIQMTQSPSSLSASVGDRVTITCRASQSISTYLNWYQKRPGKAPKLLVYGASSLQSGVPSRFSGSGSGTDFTLTIASLQPEDSAVYYCQQTYSIPLFGQGTRLEIK
For the molecule B11, the FACS M2-HK MFI in experiment [1] worked out at 963 MFI.

B12: 3252_C13 (antibody, V domains shown)
VH: QVQLQESGPGLVKPSETLSLTCTVSGASISSDYWSWIRLPPGKGLEWIGYIYNRGSTKYTPSLKSRVTISLDTAENQFSLRLRSVTAADTAIYYCARHVGGHTYGIDYWGQGTLVTVSS
VL: DIQMTQSPSSLSASVGDRVTITCRASQSISNYLNWYQHKPGEAPKLLNYAASSLQSGVPSRFSASGSGTDFTLTISSLQPEDFATYYCQQSYNTPITFGQGTRLEIK
The molecule B12 registered an FACS M2-HK MFI in experiment [1] of 449 MFI.

B13: 3420_I23 (antibody, V domains shown)
VH: QVQLQESGPGLVKPSETLSVTCKVSGDSISSYSWSWIRQPPGKGLEWVGYLYYSGSTKYNPSLKSRTTISVDTSTNQLSLKLSFVTAADTAVYFCARTGSESTTGYGMDVWGQGTTVTVSS
VL: DIQMTQSPSSLSASVGDRVTITCRASQSISTYLNWYQQKPGKAPKLLIYAASSLHSGVPSRFSGSGSGTDFALTISSLQPEDFATYYCQQSYSPPITFGQGTRLEIK
Turning to B13, the FACS M2-HK MFI in experiment [1] came out at 112 MFI.

B14: 3255_J06 (antibody, V domains shown)
VH: QVQLQESGPGLVKPSETLSLTCTVSGASISSDYWSWIRLPPGKGLEWIGYIYNRGSTKYTPSLKSRVTISLDTAENQFSLRLRSVTAADTAVYYCARHVGGHTYGIDYWGQGTLVTVSS
VL: DIQMTQSPSSLSASVGDRVTITCRASQSISNYLNWYQHKPGEAPKLLNYAASSLQSGVPSRFSASGSGTDFTLSISGLQPEDFATYYCQQSYNTPITFGPGTRLEIK
Regarding B14, the FACS M2-HK MFI in experiment [1] was determined as 442 MFI.

B15: 3139_P23 (antibody, V domains shown)
VH: QVQLQESGPRLVKPSESLSLTCTVSGGSISNSFWGWIRQPPGEGLEWIGYVYNSGNTKYNPSLKSRVTISRDTSKSQLYMKLRSVTAADTAVYYCARHDDASHGYSISWGHGTLVTVSS
VL: DIQMTQSPSSLSASVGDRVTITCRASQTISTYLNWYQQKSGKAPKLLIYAASGLQSGVPSRFSGSGSGTDFTLTISSLQPEDFATYFCQQSYNTPLTFGQGTKVEIK
In the case of B15, the FACS M2-HK MFI in experiment [1] is 110 MFI.

Source of the values: patent US20120207760A1.
